Residue numbers refer to the chain shown, from its start.
T1: Activin A (human, UniProt P08476 311-426)
T1 construct: Homodimer of two βA subunits; bought from R&D Systems (#338-AC); also called inhibin-βA dimer; human Activin A
T1 sequence: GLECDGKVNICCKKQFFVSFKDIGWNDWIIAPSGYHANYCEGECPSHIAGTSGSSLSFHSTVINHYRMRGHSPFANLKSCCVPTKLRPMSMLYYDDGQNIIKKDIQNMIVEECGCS

T2: Activin AB (human, UniProt P08476 311-426; P09529 293-407)
T2 construct: Heterodimer of one betaA and one betaB subunit; bought (R&D Systems #1006-AB-005 / #1066-AB)
T2 chain 1: T1 sequence
T2 chain 2: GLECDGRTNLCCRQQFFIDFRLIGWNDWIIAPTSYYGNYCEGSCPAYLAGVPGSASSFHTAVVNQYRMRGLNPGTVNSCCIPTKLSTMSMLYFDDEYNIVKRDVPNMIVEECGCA

T3: Activin AC (human, UniProt P55103 237-352)
T3 construct: Heterodimer of one betaA and one betaC subunit; bought (R&D Systems #4879-AC)
T3 sequence 1: T1 sequence
T3 sequence 2: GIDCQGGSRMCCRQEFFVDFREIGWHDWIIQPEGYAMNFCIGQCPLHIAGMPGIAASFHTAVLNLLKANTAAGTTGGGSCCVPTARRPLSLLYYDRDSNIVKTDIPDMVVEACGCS

T4: Activin A (human, UniProt P08476 311-426)
T4 sequence: T1 sequence

B1: H4H10424P (antibody, human IgG4, V domains shown)
VH: QVQLVESGGGVVQPGRSLRLSCAASGFTFSSYGMHWVRQAPGKGLEWVAVIWYDGSNKYNADSVKGRFTISRDNSKNTVYLQMNSLRAEDTAVYYCARARNYDILTGYYNLGMDVWGQGTTVTVSS
VL: DIQMTQSPSSLSASVGDRVTITCRASQGIRNDLGWYQQKPGKAPKRLIYAASSLQSGVPSRFSGSGSGTEFTLTISSLQPEDFATYYCLQHNSYPYTFGQGTKLEIK
B2: H2aM10965N (antibody, mouse IgG2a, V domains shown)
VH: RVQLVQSGSEVKKPGASVKVSCRASGYIFTSYDINWVRQATGQGLEWMGWMNPNNGNTAYTQKFQGRVTMTRNTSISTAYMELSSLRSEDTAVYYCARKGLLWFGKLLGYGMDVWGQGTTVTVSS
VL: not shown
B3: H4H10437P2 (antibody, human IgG4, V domains shown)
VH: EVQLVESGGGLVQPGRSLRLSCAASGFTFDDYAMHWVRQAPGKGLEWVSGISWNSGSIGYADSVKGRFTISRDNAKNSLYLQMNSLRAEDTALYYCAKDIMGNWDYFYGMDVWGQGTTVTVSS
VL: not shown
B4: H4H10426P (antibody, human IgG4, V domains shown)
VH: EVQLVESGGNLVQSGRSLRLSCTASGFAFDDFAMHWVRQVPGKGLEWVSGISWNSDTIGYADSVKGRFTISRDNAQNSLFLQMDSLRAEDTALYYCVKDMVRGLIGYYYYGMDVWGQGTTVTVSS
VL: EIVLTQSPAILSLSPGERAILSCRASQSIYTYLSWYQQTPGRAPRLLIYETSSRATGIPARFIGSGSGTDFTLTISSLEPEDFAFYYCQHRSDWPPTFGQGTKLEIK
B5: H4H10433P2 (antibody, human IgG4, V domains shown)
VH: EVQLVESGGGLVQAGRSLRLSCEASGFTFDDYGMHWVRQGPGKGLEWVSGISWNSGNIDYADSVKGRFTISRDNAKTSLYLQMNSLKTDDTALYFCAKDAVGFNWNYFLFDYWGQGTLVTVSS
VL: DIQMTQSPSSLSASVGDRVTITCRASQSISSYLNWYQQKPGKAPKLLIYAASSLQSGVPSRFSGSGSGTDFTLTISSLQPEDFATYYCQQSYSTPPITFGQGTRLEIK
B6: H4H10438P2 (antibody, human IgG4, V domains shown)
VH: EVQLVESGGGLVQPGRSLRLSCAASGFTFDDNAMHWVRQPPGKGLEWVSGISWNSGSIGYADSVKGRFTISRDNAKNSLYLQMNSLRAEDTALYYCAKDINDILTGYPLFDYWGQGTLVTVSS
VL: not shown
B7: H4H10423P (antibody, human IgG4, V domains shown)
VH: QVQLQQSGPGLLKPSQTLSLTCAISGDSVSSNSAAWSWIRQSPSRGLEWLGRTYYRANWFNDYALSVKSRITINPVTSTNHFSLQLHSVTPEDTAVYYCAREGALGYYFDSWGQGTLVTVSS
VL: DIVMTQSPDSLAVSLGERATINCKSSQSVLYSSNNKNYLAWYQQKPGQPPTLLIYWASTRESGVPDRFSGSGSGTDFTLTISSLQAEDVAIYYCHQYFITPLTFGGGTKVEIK
B8: H4H10424P (antibody, human IgG4, V domains shown)
VH: B1 VH
VL: B1 VL
B9: H4H10448P2 (antibody, human IgG4, V domains shown)
VH: QVQLQESGPGLVKPSETLSLTCTVSGGTFSSHFWSWIRQPPGKGLEWIGYIFYTGGTNHNPSLKSRVTISIDTSKNQFSLKLTSVTAADTAVYYCARARSGITFGGVIVPGSFDIWGQGTMVTVSS
VL: not shown
B10: H2aM10965N (antibody, mouse IgG2a, V domains shown)
VH: B2 VH
VL: not shown
B11: H4H10437P2 (antibody, human IgG4, V domains shown)
VH: B3 VH
VL: not shown
B12: H4H10426P (antibody, human IgG4, V domains shown)
VH: B4 VH
VL: B4 VL
B13: H4H10438P2 (antibody, human IgG4, V domains shown)
VH: B6 VH
VL: not shown
B14: H4H10452P2 (antibody, human IgG4, V domains shown)
VH: QVQLQESGPGLVKPSETLSLTCTVSGGSFSSHFWNWIRQSPGRGLEWIGYIYYSGGTNYNPSFKSRVTMSVDTSKNQFSLKLSSVTAADTAVFYCARARSGITFGGVLVPGSFDIWGQGTMVTVSS
VL: not shown
B15: H4H10445P2 (antibody, human IgG4, V domains shown)
VH: QVQLQESGPGLVKPSETLSLICSVSGGSFSSHFWSWIRQPPGKGLEWIGYVLYSGGTNYNPSLKSRVTISVDTSKNQFFLKLSSVTAADTADYYCARAISGITFGGIIVPGSFDIWGQGTMVTVSS
VL: not shown
B16: H4H10447P2 (antibody, human IgG4, V domains shown)
VH: B15 VH with I21T, V51I, L52H, F79S, S83T, I107M, I115V, Q118E
VL: not shown

What follows are binders tested against T1, Activin A (assay: SPR, captured mAb, 25C).
Protocol: (§1) Antibody-antigen association was monitored for 240 seconds while dissociation in buffer was monitored for 600 seconds. Kinetic association and dissociation rate constants were determined by processing and fitting the data using Scrubber software version 2.0c. Binding equilibrium dissociation constants (KD) and dissociative half-lives (t_{1/2}) were then calculated from the kinetic rate constants as: KD (M)=kd/kₐ and t_{1/2} (min)=[ln 2/(60*kd)]. (NB=no binding observed under the conditions used; NT=not tested).

Activin A-20 nM (RU) | Kd | koff | kon | t1/2 | Binder
82 RU | 0.229 nM | 0.000719 s⁻¹ | 3.14e+06 M⁻¹ s⁻¹ | 16 min | B1
76 RU | 0.745 nM | 0.0011 s⁻¹ | 1.48e+06 M⁻¹ s⁻¹ | 10 min | B2
30 RU | 0.134 nM | 0.00213 s⁻¹ | 1.58e+07 M⁻¹ s⁻¹ | 5 min | B3
23 RU | 0.0595 nM | 0.0007 s⁻¹ | 1.18e+07 M⁻¹ s⁻¹ | 16 min | B4
16 RU | 0.0406 nM | 0.000577 s⁻¹ | 1.42e+07 M⁻¹ s⁻¹ | 20 min | B5
25 RU | 0.0492 nM | 0.000588 s⁻¹ | 1.2e+07 M⁻¹ s⁻¹ | 20 min | B6

Target: T2, Activin AB
Assay: SPR (Biacore), mAb captured on anti-Fc, Activin AB injected, 25 C
Protocol: as §1

50 nM Ag Bound (RU) | Kd | koff | kon | t1/2 | Binder
14.7 RU | 33.1 nM | 0.0203 s⁻¹ | 613000 M⁻¹ s⁻¹ | 0.6 min | B7

Target: T2, Activin AB
Assay: SPR (Biacore), mAb captured on anti-Fc, Activin AB injected, 37 C
Protocol: as §1

50 nM Ag Bound (RU) | Kd | koff | kon | t1/2 | Binder
21.7 RU | 24.2 nM | 0.0213 s⁻¹ | 880000 M⁻¹ s⁻¹ | 0.5 min | B7

What follows are binders tested against T3, Activin AC (assay: SPR (Biacore), mAb captured on anti-Fc, Activin AC injected, 37 C).
Protocol: as §1

50 nM Ag Bound (RU) | Binder
0 RU | B7

These binders were tested against T4, Activin A (assay: cell-based or functional assay).

IC50 [M], inhibition of 100 pM Activin A in A204/CAGAx12-Luc Smad2/3-luciferase bioassay | Binder
7.6e-10 M | B8
4.6e-11 M | B9
3.5e-09 M | B10
2.9e-10 M | B11
2.3e-10 M | B12
2.6e-10 M | B13
2e-10 M | B7
5.8e-11 M | B14
5.3e-11 M | B15
7.8e-11 M | B16

The binders below were run against T1, Activin A (assay: SPR, captured mAb, 37C).
Protocol: as §1

Activin A-20 nM (RU) | Kd | koff | kon | t1/2 | Binder
58 RU | 0.794 nM | 0.00364 s⁻¹ | 4.59e+06 M⁻¹ s⁻¹ | 3 min | B1
80 RU | 1.77 nM | 0.00415 s⁻¹ | 2.35e+06 M⁻¹ s⁻¹ | 3 min | B2
20 RU | 0.229 nM | 0.00468 s⁻¹ | 2.04e+07 M⁻¹ s⁻¹ | 2 min | B3
21 RU | 0.123 nM | 0.00198 s⁻¹ | 1.61e+07 M⁻¹ s⁻¹ | 6 min | B4
12 RU | 0.0537 nM | 0.00107 s⁻¹ | 2e+07 M⁻¹ s⁻¹ | 11 min | B5
18 RU | 0.127 nM | 0.00238 s⁻¹ | 1.87e+07 M⁻¹ s⁻¹ | 5 min | B6

Each binder was assayed against T3, Activin AC (assay: SPR (Biacore), mAb captured on anti-Fc, Activin AC injected, 25 C).
Protocol: as §1

50 nM Ag Bound (RU) | Binder
-0.8 RU | B7
